Results: publication doi:10.1101/2020.08.17.254268

Biological target: CeOSM-3 kinesin-2 motor, SNAP-tagged and labelled (CeOSM-3^SNAP647) (C. elegans) (UniProt P46873)
Chain of UniProt P46873 (P46873 whole entry): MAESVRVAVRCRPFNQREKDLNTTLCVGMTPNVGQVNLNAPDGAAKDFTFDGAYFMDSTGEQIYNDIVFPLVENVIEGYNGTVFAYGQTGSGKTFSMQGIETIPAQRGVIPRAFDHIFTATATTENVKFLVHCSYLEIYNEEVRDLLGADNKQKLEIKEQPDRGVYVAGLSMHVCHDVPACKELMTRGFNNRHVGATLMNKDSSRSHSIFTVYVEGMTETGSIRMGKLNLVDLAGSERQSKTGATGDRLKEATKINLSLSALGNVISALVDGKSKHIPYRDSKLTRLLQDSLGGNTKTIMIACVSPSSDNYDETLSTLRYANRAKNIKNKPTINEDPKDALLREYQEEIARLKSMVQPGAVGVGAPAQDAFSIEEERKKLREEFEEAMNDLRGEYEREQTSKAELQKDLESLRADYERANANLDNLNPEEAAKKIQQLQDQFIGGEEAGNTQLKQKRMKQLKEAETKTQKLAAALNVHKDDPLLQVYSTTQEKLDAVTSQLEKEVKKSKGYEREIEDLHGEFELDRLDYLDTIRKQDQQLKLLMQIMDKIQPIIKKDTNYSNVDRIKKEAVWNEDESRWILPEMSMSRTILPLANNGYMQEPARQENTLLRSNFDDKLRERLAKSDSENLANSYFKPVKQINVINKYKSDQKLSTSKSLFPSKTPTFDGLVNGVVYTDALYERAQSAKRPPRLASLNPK

runlength of CeOSM-3 with MmIFT-52/IFT-70 in the single-molecule transport assay: 3 μm
velocity of CeOSM-3 with MmIFT-52/IFT-70 in the single-molecule transport assay: 1.72 μm/s
Substance: MmIFT-52^GFP/IFT-70^SNAP647 adaptor (from UniProt Q62559 1-426; Q99J38 1-664) (complex)
